Measured values reported in US4397951A, “Elastase-containing composition permitting elastase to be absorbed in increased amount” (Eisai Co., Ltd., priority 1981, dated 1983).
Read-outs that look alike come from different tables or passages of the source.

Experiments:
[1] = Serum elastase level, Tmax, Cmax, AUC after intraduodenal aqueous solution (Effect Example 3); type: in vivo, beagles; conditions: intraduodenal 5 ml solution, 55.2 mg elastase (326 EL. U/mg)
Description: An aqueous control solution was prepared by adding 55.2 mg of elastase (326 EL. U/mg) alone to 5 ml of water.
Four beagles (weighing 10.5-14.0 kg) were divided into 2 aliquot groups, each being 2 subjects. […] The subjects were fasted overnight, and the abdomen was cut open along the median line under anesthesia in the following morning. Then, 5 ml of the respective sample and control solutions were introduced into duodendum using injection tube, followed by immediate suturing. 3 ml of the blood were respectively taken prior to the administration of the solutions, and at the elapsed times of 1, 2, 4, 6, 8, 10, 12 and 24 hours after the administration of the solutions. About 1 ml of serum was respectively separated by means of centrifuge.
Serum elastase levels were measured in accordance with "Enzyme-immunological method", as described in the effect example 1.

[2] = intraintestinal, rats, cited from earlier work
[3] = test system: elastin; experiment: Elastase activity (decomposition of insoluble elastin); type: biochemical; conditions: pH 8.8, 37°C, 30 min, elastin substrate
Description: In the present invention, the compounding ratio of pure elastase to sucrose fatty acid ester is specified in terms of weight ratio for convenience' sake. […] That is, at present available pure elastase has an activity of 340 elastase activity units (abbreviated as 340 EL. U) per mg measured by the method to be described hereinafter, and therefore the composition of the present invention is also defined as an elastase-containing composition containing 0.5 to 50 mg of sucrose fatty acid ester per 340 EL. U of elastase. More specifically, the composition of the present invention is an elastase-containing composition which contains 0.5 to 50 mg of sucrose fatty acid ester per 340 EL. U (measured by the measuring method described hereinafter) of elastase.
An elastase-containing sample is accurately weighed, and dissolved in a diluted Palitzsch buffer solution to make a 250 ml elastase enzyme solution. 1 ml of the elastase enzyme solution is added to 4 ml of a substrate solution, and incubation is conducted for 30 minutes at 37°±0.1° C. with shaking at 100 strokes/min. […]
The amount of soluble elastin produced per minute as a result of decomposition of insoluble elastin under the above-described measuring conditions is determined as an amount of tyrosine (μg) by which EL. […]

[4] = background statement; cited from earlier work
[5] = statement; cited from earlier work

## Control Solution: 55.2 mg of elastase (326 EL. U/mg) alone in 5 ml of water
[1]
  AUC0-24hr: 125.84 ng·h/mL
[1]; 1440 min
  AUC0-24hr: 307.18 ng·h/mL

## ^131 I-elastase: 131I-labelled elastase dissolved in a physiological saline solution
[2]; 1 mg in physiological saline
  amount absorbed (blood vessel route plus lymphatic vessel route): 0.15%
[2]; 5 mg in physiological saline
  amount absorbed (blood vessel route plus lymphatic vessel route): 0.05%

## elastase: decomposing enzyme for elastin, extracted from porcine pancreas; polypeptide having a molecular weight of 25,900
[3]
  elastase activity: 340 EL. U per mg
[4]
  effect on elasticity of blood vessel: increase elasticity of blood vessel
  effect on serum lipid level: normalize serum lipid level
[5]
  stability to gastric acid: unstable to gastric acid
